The text below walks through data of patent US20240383999A1 (University of Texas, published 2024).

Residue numbers refer to the chain shown, from its start.

Assay [1] deals with T1, Human recombinant CD5L protein (Sino Biological, Catalog Number 10791-H08H) (human, UniProt O43866 20-347).
T1 construct: Bought protein; also called human CD5L; CD5L-His; not shown: 6xHIS-tag
T1 sequence (looked up): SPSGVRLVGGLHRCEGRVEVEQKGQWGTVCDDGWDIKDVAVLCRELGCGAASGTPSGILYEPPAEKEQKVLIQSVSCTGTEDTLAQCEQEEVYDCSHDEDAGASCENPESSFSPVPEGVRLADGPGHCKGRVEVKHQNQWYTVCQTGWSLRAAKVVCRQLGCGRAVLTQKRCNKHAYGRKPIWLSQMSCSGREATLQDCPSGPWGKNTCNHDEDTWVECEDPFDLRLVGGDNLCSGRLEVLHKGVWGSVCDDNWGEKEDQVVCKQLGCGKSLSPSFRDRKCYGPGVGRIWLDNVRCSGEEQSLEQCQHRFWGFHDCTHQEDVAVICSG
Put plainly: titration ELISA, human CD5L coated on plate. The procedure:
FIG. 11. […] Bound antibody was detected using a secondary antibody against rabbit IgG conjugated with HRP and TMB substrate for detection of A450 nm. EC₅₀ was estimated using GraphPad software by applying a 4-parameter fitting to calculate binding affinity of the antibodies.
Binding constants (EC₅₀) of a panel of monoclonal antibodies were estimated by titration ELISA, and the data were analyzed using the 4-parameter curve fitting with GraphPad Prism program (Table 6).
A general note: An ELISA detects its analyte on a solid surface through an enzyme-linked reagent.

For assay [2], the target named is T1, Human recombinant CD5L protein (Sino …). Kind of assay: BLI (Octet RED96), antibody on Protein A biosensors, CD5L-His in solution, global fit. The procedure:
Kinetic binding parameters (KD, kon, and koff) in (Table 11) were determined using Octet RED96 instrument and binding curves are shown in FIG. 17. […] KDs are calculated using Octet software with global fitting model.
On the technique in general: BLI is a label-free optical method that tracks binding on a fibre tip over time.

B1: R-23 (antibody, V domains shown)
VH: QSVEESGGRLVMPGGSLTLTCTVSGIDLSSNTMGWFRQAPGKGLEWIGIMRGGGSTYYATWAKGRFTISKTSTTVDLKLTSPTTEDTATYFCARAFPGYNSFFNFWGQGTLVTISS
VL: ELDLTQTPASVSEPVGGTVTIKCQASHNINSALAWYQQKPGQPPKLLIYKASTLASGVPPRFKGSGSGTEFTLTISDLECADAATYYCQRHYFDGASADIAFGGGTEVVVK
Turning to B1, the EC50 in assay [1] came out at 0.14 µg/mL.

B2: R-1 (antibody, V domains shown)
VH: QSVEESGGRLVTPGTPLTLTCTVSGIDLSNYAINWVRQAPGKGLEWIGMISSGDVTYYASWAKGRFIISRTSSTTVDLKMTSPTIEDTATYFCARFFAGRSESLWGQGTLVTVSS
VL: ELDLTQTPSSVSAAVGGTVTINCQSSQSVNKNNYLSWYQQKPGQPPKLLIYSASALASGVSSRFSGSGSGTEFTLTISDVQCDDAATYYCQGTYYDSGWYNAFGGGTEVEIK
On to B2, for which the EC50 in assay [1] came out at 0.0598 µg/mL.

B3: R-5 (antibody, V domains shown)
VH: QSVKESGGRLVTPGTPLTLTCTVSGFSLSSYAMSWVRQAPGKGLEWIGVIDVTGRTYYASWAKGRFTISKTSTTVDLKITSPTTEDTATYFCGRDSYLDYGDPNGLDPWGPGTLVTISS
VL: ELVMTQTPASVEAAVGGTVTIKCQASQSIGSNLAWYQQKPGQPPKLLIYTASNLAPGVSSRFKGSRSGTESTLIISDLECADAATYYCQCTYYGTSYMELGAFGGGTELEIK
Turning to B3, the EC50 in assay [1] turned out to be 0.148 µg/mL.

B4: H-119 (antibody, V domains shown)
VH: EVQLVQSGAEVKKPGESLKISCKGSGYSFTSYWIGWVRQMPGKGLEWMGIIYPGDSDTRYSPSFQGQVTISADKSISTAYLQWSSLKASDTAMYYCARGLAASTRFDPWGQGTLVTVSS
VL: DVQMTQSPSSLSASVGDRVTITCRPSQSINNYLNWYQQKPGEAPKLLIYAASNLQSGVPSRFSGSGSGTDFTLTISSLQPEDFGTYYCQQSYSIPLTFGGGTTVEIK
As for B4, the EC50 in assay [1] was determined as 0.0068 µg/mL.

B5: CD5L-35Hu-1 (antibody, V domains shown)
VH: QVQLVESGGGVVQPGRSLRLSCAASGIDLSDYYMTWVRQAPGKGLEYIGIIYASGNAYFASWAKGRFTISRDSSTNTLFLQMNSLRAEDTAVYYCARNIGGSSNLWGQGTLVTVSS
VL: AIQLTQSPSSLSASVGDRVTITCQASERIYNNLAWYQQKPGKAPKLLFYSASTLASGVPSRFSGSGSGTDFTLTISSLQPEDFATYYCQCTGYGTTYGLVFGGGTKVEIK
notes: also called humanized CD5L-35Hu mAb (CD5L-35Hu-H1 + CD5L-35Hu-K1)
Consider B5, for which, in assay [2], the Kd was under 1 pM, the koff is under 1e-07 s⁻¹ and the kon was 146000 M⁻¹ s⁻¹.

B6: CD5L-35Hu-3 (antibody, V domains shown)
VH: B5 VH with S73N, L78V
VL: B5 VL
notes: also called humanized CD5L-35Hu mAb (CD5L-35Hu-H2 + CD5L-35Hu-K1)
Turning to B6, in assay [2], the Kd was under 1 pM, the koff is under 1e-07 s⁻¹ and the kon was 119000 M⁻¹ s⁻¹.

B7: CD5L-35Hu-4 (antibody, V domains shown)
VH: B5 VH with S73N, L78V
VL: B5 VL with A1E, I2L, S7T, T22K
notes: also called humanized CD5L-35Hu mAb (CD5L-35Hu-H2 + CD5L-35Hu-K2)
As for B7, in assay [2], the Kd was under 1 pM, the koff is under 1e-07 s⁻¹ and the association rate constant (kon) came to 106000 M⁻¹ s⁻¹.

B8: CD5L-35Hu-2 (antibody, V domains shown)
VH: B5 VH
VL: B5 VL with A1E, I2L, S7T, T22K
notes: also called humanized CD5L-35Hu mAb (CD5L-35Hu-H1 + CD5L-35Hu-K2)
Take B8: in assay [2], the Kd is under 1 pM, the koff is under 1e-07 s⁻¹ and the kon was 125000 M⁻¹ s⁻¹.

B9: R-36 (antibody, V domains shown)
VH: QSVKESGGGLFQPGGSLALTCKASGFSLSKNYVMCWVRQAPGKGLEWIACIYAGDGNTYYVSWAKGRFTISKTSSTTVTLQMTSLTAADTATYFCARWDYIGNNNLWGPGTLVTISS
VL: ELVLTQTPASVEAAVGGTVTIKCQASQTISSYLAWYQQKPGQPPKLLIYRASTLASGVPSRFKGSGSGTQFTLTISDLECADGATYYCQCPYYGSSHVGAFGGGTEVVVK
B9: the EC50 in assay [1] was found to be 0.278 µg/mL.

B10: R-49 (antibody, V domains shown)
VH: QSVKESGGRLVTPGTPLTLTCTVSGFSLSINAINWVRQAPGKGLEWIGIITNIGNTYYASWAKGRFTISRTSTTVDLTMTSLTTEDTATYFCARNSYFDPWGPGTLVTISS
VL: ELVLTQTPSPVSAAVGGTVSISCQASQSVDSNNYCSWYQQKPGQPPKLLIHKASKLASGVPSRFKGSGSGTQFTLTINDLECDDAATYYCAGGLGDNIYAFGGGTEVEIN
In the case of B10, the EC50 in assay [1] was found to be 0.0077 µg/mL.

B11: R-21 (antibody, V domains shown)
VH: QSVEESGGRLVTPGTPLTLTCTVSGIDLSSYAINWVRQAPGEGLEWIGMISSSDNTYYANWAKGRFTISRDSTTVDLKITSPTTEDTATYFCARFYAGRSYSLWGQGTLVTISS
VL: ELDLTQTPASVSAAVGGTVTISCQSSESVYKSNYLSWYQQKAGQPPKLLIYAAATLASGVPSRFKGSGSGTQFTLTISGVQCDDAATYYCQGTYYSSGWYNAFGGGTEVVVK
Regarding B11, the EC50 in assay [1] was found to be 0.21 µg/mL.

B12: R-9 (antibody, V domains shown)
VH: QSVKESGGRLVTPGTPLTLTCTVSGFYLSTHGMTWVRQAPGKGLEYIGVIVTSGNTYYATWATGRFTISKTSTTVDLKITSPTTEDTATYFCARPGYKSVPLWGQGTLVTISS
VL: ELDLTQTPASVSAAVGGTVTINCQASEDIYSGLTWYQQKPGQPPKLLIYRASTLASGVPPRFKGSGSGTEFTLTISDLECDDAATYYCQNNYGSSSNNYVFAFGGGTEVEIK
Regarding B12, the 50% effective concentration (EC50) in assay [1] came out at 0.136 µg/mL.

B13: R-4 (antibody, V domains shown)
VH: QSVEESGGRLVTPGTPLTLTCTASGFSLSSYYMTWVRQAPGKGLEYIGIISDRGSTYYASWAKGRFTIAKTSSTTVDLKLTSLTTEDTATYFCYRGVDGSGGYAAGDLWGQGTLVTISS
VL: ELVLTQTPASVEAAVGGTVTIKCQASEDIYSYFAWYQQKPGQRPRLLIYEASKVASGVPSRFKGGGSGTQFTLTISDLECADAATYYCQNNFYMIGDDYGGTFGGGTEVEIK
Regarding B13, the EC50 in assay [1] stood at 0.0713 µg/mL.

B14: R-11 (antibody, V domains shown)
VH: QSVKESGGDLVKPGASLTLTCTASGFDFSSNTMCWVRQAPGKGLEYIGYISYSGATHYASWAKGRFTISKTLSTTVTLQMTSLTDADTATYFCARDRGYVDGSYYGDFNLWGPGTLVTVSS
VL: ELVMTQTPSSASEPVGGTVTIKCQASQSIASRLAWFQQKPGQPPKLLIYRASTLESGVSSRFKGSGFGTEFTLTISDLECADAATYYCQSYYGSGYGKTFGGGTDVVVK
In the case of B14, the EC50 in assay [1] is 0.0474 µg/mL.

B15: R-51 (antibody, V domains shown)
VH: QSVKESGGRLVTPGTPLTLTCTVSTIDVSKYAVIWVRQAPGKGLEYIGIISSSGSTYYASWAKGRFTISKTSSTTVDLKMTSPTAEDTATYFCARGGNGVAFKLWGQGTLVTISS
VL: ELDLTQTPASVEAAVGGTVTINCQASQSIYSSLAWYQQKPGQPPKLLIYETSKVESGVPSRFSGSGSGTQFTLTISDLECADAATYYCQSHDYISSSGMPFGGGTELEIL
For B15, the EC50 in assay [1] worked out at 0.0144 µg/mL.

B16: R-6 (antibody, V domains shown)
VH: B15 VH with V3L, K4E
VL: ELDMTQTPASVEAAVGGTVTINCQASESINDRLAWYQLKPGQPPKLLIYETSQVESGVPSRFSGSGSGTQFTLTISDLECADAATYYCQSHDYISSSGMPFGGGTEVVVK
As for B16, the EC50 in assay [1] worked out at 0.187 µg/mL.

B17: R-10 (antibody, V domains shown)
VH: QSVKESGGRLVTPGTPLTLTCTLSGIDLSSYAMGWVRQAPGKGLEYIGIIGASGTTYYANWAKGRFTISRTSTTVDLKITSPTTEDTATYFCARAGYAGTGYPTRLDLWGQGTLVTISS
VL: ELDMTQTPASVEAAVGGTVTIKCQASQSISSSYLAWYQQKPGQPPKLLIYKASTLESGVPSRFSGSGSGTEFTLTISGVQCDDAATYYCLGGYFSFSNYDYGFGGGTEVEIK
For the molecule B17, in assay [1], the EC50 came to 0.307 µg/mL.

B18: R-29 (antibody, V domains shown)
VH: QSVEESGGRLVTPGTPLTLTCTVSGFSLSSYAMNWVRQAPGKGLEWIGLIYASGTTHYASWVNGRFTISKTSTTVTLKMTSLTAADTATYFCARDSYSTGNLWGQGTLVTISS
VL: ELVLTQTPASVSEPVGGTVTIKCQASQSIYSSLVWYQQKPGQPPKLLIYGASNLESGVPSRFKGSGSGTEYTLTISGVQCADAATYYCQCSGYNSRVFGGGTEVEIK
Consider B18, for which the EC50 in assay [1] came to 0.161 µg/mL.

B19: R-39 (antibody, V domains shown)
VH: QSLEESGGRLVTPGGSLTLTCTVSGIDLSSYTMGWVRQAPGKGLEWIGVIAINGGTVYASWAKGRFTISKTSTTVDLKMTSPTPEDTATYFCARGAGKTWSSFNLWGQGTLVTISS
VL: ELVLTQTPASVSEPVGGTVTIKCQASQSIGSNLAWYQQKPGQPPKLLIYRASTLESGVPSRFSGSGSGTEFTLTISDLECADAATYYCQSYYGSSTNAFGGGTEVVVK
In the case of B19, the concentration giving a half-maximal response (EC50) in assay [1] turned out to be 0.246 µg/mL.

As a reminder, the EC50 is the concentration needed to bring the measured effect to its halfway point. A word on the Kd: it is the equilibrium constant for the complex coming apart. As usually defined, the koff is the rate constant with which the complex falls apart. For orientation: kon means the second-order rate constant of association.
